Test results published in the nanobody polyreactivity screen of Harvey et al. (2022).

Experiment: yeast display, Sf9 membrane polyspecificity reagent, FACS + sequencing; frameworks hold sequencing errors
Summary of the method: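 Sorting gates, low and high (top ~1%), were placed on anti-HA fluorescence to track expression and on streptavidin fluorescence to track reagent binding. A clone's polyreactivity label is taken from the gate it came out of. The reagent was 10% biotinylated, detergent-solubilized Sf9 membrane, applied for 1 hour at 4 °C to galactose-induced yeast display cells.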

EVQRVESGGGLVQAGCSLRLSCAASGINFSIYAMGWYRQAPGKERELVADITYSGGRTYYADSVKGRFTISRDNAKNTVYLQLYSLKPEDTAVYYCAAVGYGDYYWGQGTQVTVSS
polyreactivity (PSR sort gate): high polyreactivity

QVQLVESGGGLVQAGGILSLSCAASGLIFRKNAKGWYRQAPGKEMELVAAISGRGGITYYADSVKGRFTISRDNAKNTVYLQMNSLKPEDTAVYYCATRFYRPRDGLYDYWGHGTQVTVSS
polyreactivity (PSR sort gate): high polyreactivity

QVQLVESGGGLVQAGGSLRLSCAASGRIFGYYTMGWYRQAPGKERELVAAITRDGGSTYYADSVKGRFTISRDNAKNTVYLQMNSLKPEDTAVDYCTAASQSRYYYWGQGTQVTVSS
polyreactivity (PSR sort gate): high polyreactivity

QVQLVESGGGLVQAGGSLRLSCAASGSIFERYAMGWYRQAPGKERELVAGISTDGSTYADSVKGRFTISRDNAKNTVYLQMNSLKPEDTAVYYCNKRRGFSAWYDYWGQGTQVTVSS
polyreactivity (PSR sort gate): low polyreactivity

QVQLVESGGGLVQAGGSLRLSCAASGFIFLYYAMGWYRQAPGKERELVAVITRGGRTYYADSVKGRFTISRDNAKNTVYLQMNSLKPEDTAVYYCAAKAYSYFARIGFDYWGQGTQVTVSS
polyreactivity (PSR sort gate): high polyreactivity

QVQLVESGGGLVQAGGSLRLSCAASGSIYLYAMGWYIQAPGKERELVADISFSDGSTYYADSVKGRFTISRDNAKNTVYLQMNSLKPEDTAVYYCAAGVWHHASWDFLEYYYWGQGTQVTVSS
polyreactivity (PSR sort gate): low polyreactivity

QDQLVESGGGLVQAGGSLRLSCAASGSTFPYNVMGWYRQAPGKEREFVAAISSSSGSTYYADSVKGRFTISRDNAKNTVYLQLNSLKPEDTAVYYCARRHPRQRQDGKVDYWGQGTQVTVSS
polyreactivity (PSR sort gate): low polyreactivity

QVQLVESGGGLVQAGGSLRLSCAASGITFLDYAMRWYRQAPGKERELVAAITKSVGSTYYADSVKGRFTISRDNAKNTVYLQMNSLKPEDTAVYYCAADPDSGQVPFDYWGQGTQVTVSS
polyreactivity (PSR sort gate): low polyreactivity

QVQLVESGGGLVQAGGSLRLSCAATGRIVTSNAMGWYRQAPGKERELVAVISRRGGSTYYADSVKGRFTISRDNAKNTVYLQMNRLKPEETAVYYCARRPYSYTRYEYWGQGTQVTVSS
polyreactivity (PSR sort gate): low polyreactivity

QVQLVESGGGLVQAGGSLRLSCAASGFISYYYAMGWYRQAPGKDWELVAVITSGGSTDYADSVKGRFTISRDHAKNTVYLQMNSLKPEDTAVYYCARDDPASHKRYWHDYWGQGTQVTVSS
polyreactivity (PSR sort gate): low polyreactivity

QVQLVESGGGLVQAGGSLRLSCAASGRIFGANAMGWYRQAPGKERELVATITYGGTSTYYADSVKGRFTISRDNGKNTVYLQMNSLKPEDTAVSYCAADGYSVFAAILGEYFDSDYWGQGTQVTVSS
polyreactivity (PSR sort gate): low polyreactivity

QVQLVESGGGLVQAGGSLRLSCAASGSTFDAYAMGWYRQAPGKERELVAAITNAGSTNYADSVKGRFTISRDNAKNTVYLQMNSLKPEDTAVFYCAADVSRWLDYGYDYWGQGTQVTVSS
polyreactivity (PSR sort gate): low polyreactivity

QVQLVESGGGLVQAGGSLRLSCAASGFTFRNYAMGWYRQAPGKERELVAAISKSGGSTYYADSVKGRFTISRDNAKNTVYLQMNSLKPEDTAVYYCATDYLYVYGFEYYYWGQGTQVTVSS
polyreactivity (PSR sort gate): high polyreactivity

QVQLVESGGGLVQAGGSLRLICASSGRIFSPYVMGWYRQAPGKERELVARISWTGSSTYYADSVKGRFTISRDNAKNTVYLQMNSLKPEDTAVYYCAKRLTRFYTRLEYWGLGTQVTVSS
polyreactivity (PSR sort gate): low polyreactivity

QVQLVESGGGLVQAGGSLRLSCAASGSIFRPYAMGWYRQAPGKEREFVASISWRGGSTYADSVKGRFTISRDNAKNTVYLQMNSLKPEDTAVYYCAAKFWRYRYYEYDYWGQGTQVTVSS
polyreactivity (PSR sort gate): high polyreactivity

QVQLVESGGGLVQAGGSLRLSCAASGITFWKYAMGWYRQAPGKERELVAVITKSGGSTYYADSVKGRFTISRDNAKNTVYLQMNSLKPEDTAVYYCAASSETYYYGYEYWGQGTQVTVSS
polyreactivity (PSR sort gate): high polyreactivity

QEQLQESGGGLVQAGGSLRLSCAASGNISTHQLYMGSYRQAPGKEREFVAAINFGASTYYADSVKGRNTISRDNAKYTVYLQMNSLKPEDTAVYYCNADWYYYYEVDDYWGQGTQVTVSS
polyreactivity (PSR sort gate): low polyreactivity

QVQLVESGGGLVQAGGSLRLSCAASGGIFVRYAMGVYRQAPGKERELVAAITGTGSSTYYADSVKGRFTISRDNAKNTVYLQMNSLKPEDTAVYYCAAARYSNYGYWGQGTQVTVSS
polyreactivity (PSR sort gate): high polyreactivity

QVQLVESGGGLVQAGGSLRLSCAASGRIFYRNTMGWYRQAPGKERELVAPITSSGASTYYADSVKGRFTISRDIAKNTVYLQMNSLKPEDTAVYFCGAQPYVEGTKRYYWGQGTQVTVSS
polyreactivity (PSR sort gate): high polyreactivity

QVQLVESGGGLVQAGGSLPLICADSGFISAYYAMGWYRQAPGKEREFVAGISKSGSSTSYADSVKGRFTISRDNAKKTVYLQMNSLKPEDTAVYYCAKYTPYYSELGYWGQGTQVTVSS
polyreactivity (PSR sort gate): high polyreactivity

QVQLVESGGGLVQAGGSLGLSCAASGSTFAEYAMGWYRQAPGKERELVAVISFGDGNTYYADSVKGRVTISRDNAKNTVYLQMNSLKPEDTAVYYCNAADDSVDQSVRTLRQYEYWGQGTQVTVSS
polyreactivity (PSR sort gate): low polyreactivity

QVQLVESGGGLVQAGGSLRLSCAASGSPFRPYVMGWSRQAPGKERELVAAISWRGGTTYYADSVKGRFTISRDNAKNTDYLQIHSLKPEDTAVYYCAARGDQGVPVARRYDYWGQGTQVTVSS
polyreactivity (PSR sort gate): high polyreactivity

QVQLVESGGGLLKAGGSLRLSCAASGSTFSVYAMGWYRQAPGKEREFVARITWNGGRTYYADSVKGRFTISRDNAKNTVYLQMNSLKPEDTAVYYCAARGPTVTGTGGDYWGQGTQVTVSS
polyreactivity (PSR sort gate): high polyreactivity

QVQLVESGGGLVQAGGSLRLSCAASGRIFRSIAMGWYRQSPGKERELVAVINSDDSTYYADSVKGRFTISRDNAKNTVYLQMNSLKPEDTAVYYCAAEPQYTRHMDSWGQGTQVTVSS
polyreactivity (PSR sort gate): low polyreactivity

QVQLVESGGGLVQAGGSLRLSCAASGFTFRKYAMGLYRQAPGKERELVASITSGGSTYYADSVKGRFTISRDNAKNTVYLQMNSLKPEDNAVYYCNAVKATLASGRLRGAYYYWGQGNQVTVSS
polyreactivity (PSR sort gate): high polyreactivity

QVQLVESGGGLVQAGGSLRLSCAASGIIFVRNAMGWYRQAPGKERELVAAISRSGGSTYYADSVKGRFTISRDNAKNTVYLQMNSLKPEDTAVYYCAAVMRLSSGYDYWGQGTQVTVSS
polyreactivity (PSR sort gate): high polyreactivity

QVQLVESGGGLVQAGGSLRLSCPASGRIYDYNGMRWYRQAPRKERELVAAITSSGSRTYYADSVKGRFTISRDNAKNTVYFQMNSLKPEDTAVYYCARGGGRRKGLVDYWGQGTQVSVSS
polyreactivity (PSR sort gate): low polyreactivity

QVQLVESGGGLVQAGGSLRLSCAGSGFTLGSNAMGWYRQAPGKERELVAVISGSGGSTYYADSVKGRFTISRDNAKNTVYLQMNSLKPEDTAVYYCAAQYSAGQYYGYGYWGQGTQVTVSS
polyreactivity (PSR sort gate): high polyreactivity

QVQLVESGGGLVQAGGCLRLSCAASGRTFPRYAMGWYIQAPGKVRELVAVISFSGDSTSYADSVKGRFTISRDTAKNTVYIQMNSRKPEDTAVYYCIADYKSTVFRYSGSRNYWGQGTQVTVSS
polyreactivity (PSR sort gate): low polyreactivity

QVQLVESGGGLVQAGGSLRLSCAASGLIFQRNTMGWYRQAPGKERELVAAISRSGGSTYYADSVKGRFTISRDNAKNTVYLQMNSLKPEDTAVYYCAALIFRHRGKDDDYWGQGTQVTVSS
polyreactivity (PSR sort gate): high polyreactivity

QVQLVESGGGLVQAGGSLRLSCAASGSTFRGYAMGWYRQAPGKERELVAAITGSGDRTRYADSVKGRFTISRDNAKNTVYLQMNSLKPEDTAVYYCAKVWPHWAYYSWGQGTQVTVSS
polyreactivity (PSR sort gate): high polyreactivity

QVHLVESGGGLVQAGGILRLSCAASGFIYTKYTMGSYRQAPGKEREMVAAITGRGTSTYADSVKGRFTISRDNAKNSVYLQMNRLKPEDTAVYYCASVGWFADFMFSDINGYYWGQGTEVTVSS
polyreactivity (PSR sort gate): low polyreactivity
